These results are taken from paper PMC10526831, “SUPPRESSOR OF MAX2 LIKE 6, 7, and 8 Interact with DDB1 BINDING WD REPEAT DOMAIN HYPERSENSITIVE TO ABA DEFICIENT 1 to Regulate the Drought Tolerance and Target SUCROSE NONFERMENTING 1 RELATED PROTEIN K”.

What all share (test): EMSA; 25x unlabeled probe as competitor; 1 ug protein, 20 uL reaction, room temperature 30 min; 6% native PAGE in 0.5x TBE; binding buffer, salt and pH not given
What all share (details): protein: recombinant; tags: N-terminal GST (pGEX-6P-1); label: biotin; blunt

One series concerns the target T1, GST-SMXL7 (Arabidopsis thaliana, UniProt O80875 1-1002).
T1 sequence: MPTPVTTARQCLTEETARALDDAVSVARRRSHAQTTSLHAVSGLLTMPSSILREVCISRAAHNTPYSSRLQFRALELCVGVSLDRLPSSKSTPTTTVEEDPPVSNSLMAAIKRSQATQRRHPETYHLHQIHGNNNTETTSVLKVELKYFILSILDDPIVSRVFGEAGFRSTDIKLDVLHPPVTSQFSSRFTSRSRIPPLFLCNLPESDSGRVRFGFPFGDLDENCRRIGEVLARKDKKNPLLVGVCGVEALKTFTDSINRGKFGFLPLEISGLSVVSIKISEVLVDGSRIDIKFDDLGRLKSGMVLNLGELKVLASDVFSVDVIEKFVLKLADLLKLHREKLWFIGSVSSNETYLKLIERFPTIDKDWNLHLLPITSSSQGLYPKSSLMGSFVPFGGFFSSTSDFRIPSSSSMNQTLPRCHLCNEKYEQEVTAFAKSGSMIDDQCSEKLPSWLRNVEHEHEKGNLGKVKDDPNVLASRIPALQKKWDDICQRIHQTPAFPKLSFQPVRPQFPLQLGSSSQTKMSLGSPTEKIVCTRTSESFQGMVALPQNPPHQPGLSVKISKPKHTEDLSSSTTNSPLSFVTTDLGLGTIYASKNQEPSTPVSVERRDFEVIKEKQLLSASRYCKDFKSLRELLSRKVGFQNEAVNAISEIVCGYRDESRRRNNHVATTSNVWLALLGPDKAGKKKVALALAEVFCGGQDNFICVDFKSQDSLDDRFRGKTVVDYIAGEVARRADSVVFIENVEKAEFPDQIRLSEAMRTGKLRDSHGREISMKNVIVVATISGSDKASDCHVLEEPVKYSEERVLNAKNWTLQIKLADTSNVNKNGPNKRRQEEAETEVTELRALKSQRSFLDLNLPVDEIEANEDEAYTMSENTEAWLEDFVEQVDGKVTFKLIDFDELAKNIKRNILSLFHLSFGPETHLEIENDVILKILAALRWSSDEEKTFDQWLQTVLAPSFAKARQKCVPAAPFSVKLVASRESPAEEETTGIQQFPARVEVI

In a further series the target is T2, GST-SMXL8 (Arabidopsis thaliana, UniProt F4IGZ2 1-910).
T2 sequence: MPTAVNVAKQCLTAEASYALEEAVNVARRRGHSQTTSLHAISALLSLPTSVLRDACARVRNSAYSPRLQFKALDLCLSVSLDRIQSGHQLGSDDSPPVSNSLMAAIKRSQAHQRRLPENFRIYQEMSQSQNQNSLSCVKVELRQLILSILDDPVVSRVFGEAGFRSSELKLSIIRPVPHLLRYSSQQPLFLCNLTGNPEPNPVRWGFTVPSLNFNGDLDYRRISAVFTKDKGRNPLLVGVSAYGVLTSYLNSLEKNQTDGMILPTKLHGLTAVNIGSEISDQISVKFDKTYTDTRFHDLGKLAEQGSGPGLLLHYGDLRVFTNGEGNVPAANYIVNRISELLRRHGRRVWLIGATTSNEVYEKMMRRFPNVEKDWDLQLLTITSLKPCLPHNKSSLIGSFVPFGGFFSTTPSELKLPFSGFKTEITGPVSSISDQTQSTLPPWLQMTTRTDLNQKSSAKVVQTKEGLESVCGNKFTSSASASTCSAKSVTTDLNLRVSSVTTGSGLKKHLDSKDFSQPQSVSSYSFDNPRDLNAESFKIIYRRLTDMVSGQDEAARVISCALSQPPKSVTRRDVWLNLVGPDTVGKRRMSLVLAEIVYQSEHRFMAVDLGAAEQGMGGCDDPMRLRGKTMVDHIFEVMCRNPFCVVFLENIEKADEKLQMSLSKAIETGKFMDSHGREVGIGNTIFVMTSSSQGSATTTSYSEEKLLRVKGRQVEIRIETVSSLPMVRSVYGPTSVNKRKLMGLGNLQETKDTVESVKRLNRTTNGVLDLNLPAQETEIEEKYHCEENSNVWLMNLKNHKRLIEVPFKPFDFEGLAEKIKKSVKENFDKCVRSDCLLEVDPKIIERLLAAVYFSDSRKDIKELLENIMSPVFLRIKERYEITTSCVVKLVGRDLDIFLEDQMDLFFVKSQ

Another series concerns the target T3, GST-SMXL6 (Arabidopsis thaliana, UniProt Q9LML2 1-979).
T3 sequence: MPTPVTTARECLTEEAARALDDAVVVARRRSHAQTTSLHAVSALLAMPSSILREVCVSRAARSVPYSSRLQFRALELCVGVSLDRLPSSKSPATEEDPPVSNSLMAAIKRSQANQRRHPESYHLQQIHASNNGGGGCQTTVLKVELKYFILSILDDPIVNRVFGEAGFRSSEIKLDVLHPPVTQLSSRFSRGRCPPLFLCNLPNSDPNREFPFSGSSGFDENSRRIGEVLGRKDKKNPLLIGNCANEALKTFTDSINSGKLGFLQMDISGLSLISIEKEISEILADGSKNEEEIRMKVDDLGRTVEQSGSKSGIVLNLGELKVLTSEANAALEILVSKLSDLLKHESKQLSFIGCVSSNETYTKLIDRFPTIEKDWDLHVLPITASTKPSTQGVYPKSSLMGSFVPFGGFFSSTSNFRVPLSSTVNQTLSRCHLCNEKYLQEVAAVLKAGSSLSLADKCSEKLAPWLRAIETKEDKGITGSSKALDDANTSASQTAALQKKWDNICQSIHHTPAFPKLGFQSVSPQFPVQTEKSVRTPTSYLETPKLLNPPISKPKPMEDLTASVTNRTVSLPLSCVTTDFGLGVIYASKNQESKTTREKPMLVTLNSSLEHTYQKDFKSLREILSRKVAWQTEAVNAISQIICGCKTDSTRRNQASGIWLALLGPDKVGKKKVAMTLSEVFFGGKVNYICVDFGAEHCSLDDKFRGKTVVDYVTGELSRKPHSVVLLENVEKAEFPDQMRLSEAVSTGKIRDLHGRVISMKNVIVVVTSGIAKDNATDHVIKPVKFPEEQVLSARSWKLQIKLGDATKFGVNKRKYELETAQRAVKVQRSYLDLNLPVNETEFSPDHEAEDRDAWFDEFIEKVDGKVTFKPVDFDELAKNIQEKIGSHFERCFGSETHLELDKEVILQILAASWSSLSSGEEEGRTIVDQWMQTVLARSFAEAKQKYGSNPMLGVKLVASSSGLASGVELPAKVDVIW

B1: SnRK2.3 promoter p2.3-3-1-2-a (dsDNA)
DNA 1: CTTGGGGCAACCAATTATTGCCTTTTTTCTTCCTCTCTTTCCTTATTCGTT
DNA 2: AACGAATAAGGAAAGAGAGGAAGAAAAAAGGCAATAATTGGTTGCCCCAAG
Turning to B1, the binding result with GST-SMXL7, with GST-SMXL8 and with GST-SMXL6 was “binds” each time.

B2: SnRK2.6 promoter p2.6-3-1-1-a (dsDNA)
DNA 1: GACATTTGTGGTAACTTGTTTTTCTTTTATTTTCCGTTTTTAAATGCGGAAACCCTT
DNA 2: AAGGGTTTCCGCATTTAAAAACGGAAAATAAAAGAAAAACAAGTTACCACAAATGTC
Regarding B2, the binding result with GST-SMXL8 and with GST-SMXL6 was “binds” each time.
